Assay [1] concerns the target T1, recombinant human IL-5 (human, UniProt P05113 20-134).
T1 sequence (looked up): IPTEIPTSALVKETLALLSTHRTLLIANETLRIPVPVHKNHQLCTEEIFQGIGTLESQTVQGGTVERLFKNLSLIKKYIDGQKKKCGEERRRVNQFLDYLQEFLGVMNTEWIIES
Kind of assay: cell-based or functional assay.

The next assay deals with T2, murine IL-5 (murine, UniProt P04401 21-133).
T2 sequence (looked up): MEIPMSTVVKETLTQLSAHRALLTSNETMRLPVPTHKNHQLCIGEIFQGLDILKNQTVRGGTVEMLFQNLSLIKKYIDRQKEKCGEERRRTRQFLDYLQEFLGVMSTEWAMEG
As to the kind of experiment: cell-based or functional assay.

The target of assay [2] is T1, recombinant human IL-5. As to the kind of experiment: KinExA 3000 kinetic exclusion assay, Dual Curve (Unknown Antigen) method. The procedure: (§1) The KinExA uses the principle of the Kinetic Exclusion Assay method based on measuring the concentration of uncomplexed antibody in a mixture of antibody, antigen and antibody-antigen complex. The concentration of free antibody is measured by exposing the mixture to a solid-phase immobilized antigen for a very brief period of time. In practice, this is accomplished by flowing the solution phase antigen-antibody mixture past antigen coated particles trapped in a flow cell. Data, generated by the instrument are analyzed using custom software. Equilibrium constants are calculated using a mathematical theory based on the following assumptions:
(§2) All experimental procedures were performed according to the KinExA 3000™ Manual. All runs were done in duplicate.
(§3) The antibody molecular weight used for calculation was 150 Kda.

For assay [3], the target named is T1, recombinant human IL-5. Kind of assay: KinExA 3000 kinetic exclusion assay, Dual Curve analysis (Standard mode), 0.1 and 0.01 nM antibody. As for the experimental part:
as §1, §2, §3

This is an account of results in US20030194404A1 (SCHERING, published 2003).

B1: human monoclonal antibody 20.13.3 (antibody, human IgG4, kappa, V domains shown)
VH: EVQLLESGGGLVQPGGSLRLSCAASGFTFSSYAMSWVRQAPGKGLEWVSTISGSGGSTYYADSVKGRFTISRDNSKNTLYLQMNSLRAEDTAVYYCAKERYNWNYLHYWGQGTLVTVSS
VL: DIQMTQSPSSLSASVGDRVTITCQASQDIINYLNWYQQKPGKAPKLLIYSASNLETRVPSRFSGSGSGTDFTFTISSLQPEDIATYYCQQYDNHPLTFGGGTKVEIRR
What is called Kd is a measure of binding affinity in units of concentration. Regarding B1, the “IC50, TF-1 anti-proliferation assay” value with recombinant human IL-5 [1] was determined as 0.25 nM; in the assay with murine IL-5, 0.38 nM. For the same molecule, the Kd with recombinant human IL-5 [2] amounted to 0.0195 nM; with recombinant human IL-5 [3] it was 0.015 nM.
